Experimental data from PMC3758141, “Structural analysis of DNA–protein complexes regulating the restriction–modification system Esp1396I” (Acta Crystallographica Section F: Structural Biology and …, 2013).

T1: C.Esp1396I controller protein (plasmid pEsp1396I (type II RM system …, UniProt Q8GGH0 1-79))
T1 sequence: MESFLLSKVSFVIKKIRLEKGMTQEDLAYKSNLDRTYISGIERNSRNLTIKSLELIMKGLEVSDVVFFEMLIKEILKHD

B1: 25OL (dsDNA)
DNA 1: ATGTGACTTATAGTCGTGTGATTA
DNA 2: TAATCACACGACTATAAGTCACAT
B2: controller protein C.Esp1396I (natural protein)
chain: T1 sequence
notes: controller protein (C-protein) of the plasmid-borne type II restriction-modification system Esp1396I; 'native C.Esp1396I'; Homodimer; The His tag was removed with thrombin before crystallisation; In both crystals the dimer stands together with a DNA duplex (19 bp OR or 25 bp OL plus half of OR); also called C-protein; not shown: His6, N-terminal, cleaved

Columns and labels:
[1] = molecular target: T1, C.Esp1396I controller protein; assay: X-ray crystallography; dimer bound at OL via HTH, OR half unbound; 10 mM spermidine, protein:DNA 2:1; Crystallization by vapour diffusion: 19OR 0.1 M PCB buffer pH 5.0, 25% PEG 3350, 10 mM spermidine (microseeded); 25OL 0.1 M PCB pH 4.0, 20% PEG 1500, 10 mM spermidine; temperature not stated; settings: protein: recombinant; tags: N-terminal His6 removed with thrombin; chain copies: 2; (called 25 bp, but printed strand has 24 nt)
[2] = molecular target: the molecule itself; assay: crystal structure; co-crystal of C.Esp1396I with the 19 bp OR DNA duplex (19OR), protein:DNA 1:1, 0.1 M PCB buffer pH 5.0, 25% PEG 3350, 10 mM spermidine, microseeding; 3.0 Å, space group C2

Binder	binding result [1]	binding result [2]
B1	binds	
B2		binds
